Measurements: patent publication US20220332804A1 (CSL INNOVATION, published 2022)

Experiments:
Test in all cases: SPR, KD relative to WT C2;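 further: biacore SPR at 37 °C, anti-C2 mAbs captured via immobilised goat anti-human IgG, C2 alanine or serine surface mutants as analytes, 1:1 model fitted, double-referenced sensograms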
human C2 N467A = target: T1, human C2 N467A (human, UniProt P06681 21-752)
T1 sequence: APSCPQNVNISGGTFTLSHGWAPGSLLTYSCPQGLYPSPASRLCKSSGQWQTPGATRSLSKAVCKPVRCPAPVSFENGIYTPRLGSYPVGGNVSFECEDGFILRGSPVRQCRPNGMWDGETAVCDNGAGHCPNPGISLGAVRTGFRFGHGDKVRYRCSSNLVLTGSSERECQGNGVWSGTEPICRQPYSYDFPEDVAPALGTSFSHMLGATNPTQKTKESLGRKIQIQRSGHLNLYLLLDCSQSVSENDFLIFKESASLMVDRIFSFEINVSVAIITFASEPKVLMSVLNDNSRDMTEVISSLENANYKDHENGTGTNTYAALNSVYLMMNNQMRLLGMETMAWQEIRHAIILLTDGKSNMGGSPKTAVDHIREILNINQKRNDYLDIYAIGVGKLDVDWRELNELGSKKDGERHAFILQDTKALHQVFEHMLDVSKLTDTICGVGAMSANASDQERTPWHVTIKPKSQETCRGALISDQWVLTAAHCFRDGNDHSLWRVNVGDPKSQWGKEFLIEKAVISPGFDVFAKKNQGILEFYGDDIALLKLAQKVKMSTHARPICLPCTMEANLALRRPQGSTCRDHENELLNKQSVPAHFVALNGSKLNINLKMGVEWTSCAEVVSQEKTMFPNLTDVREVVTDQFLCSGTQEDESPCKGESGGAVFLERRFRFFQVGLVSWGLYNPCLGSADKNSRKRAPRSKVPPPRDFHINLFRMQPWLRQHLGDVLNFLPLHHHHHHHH

human C2 E476A = target: T2, human C2 E476A (human, UniProt P06681 21-752)
T2 sequence: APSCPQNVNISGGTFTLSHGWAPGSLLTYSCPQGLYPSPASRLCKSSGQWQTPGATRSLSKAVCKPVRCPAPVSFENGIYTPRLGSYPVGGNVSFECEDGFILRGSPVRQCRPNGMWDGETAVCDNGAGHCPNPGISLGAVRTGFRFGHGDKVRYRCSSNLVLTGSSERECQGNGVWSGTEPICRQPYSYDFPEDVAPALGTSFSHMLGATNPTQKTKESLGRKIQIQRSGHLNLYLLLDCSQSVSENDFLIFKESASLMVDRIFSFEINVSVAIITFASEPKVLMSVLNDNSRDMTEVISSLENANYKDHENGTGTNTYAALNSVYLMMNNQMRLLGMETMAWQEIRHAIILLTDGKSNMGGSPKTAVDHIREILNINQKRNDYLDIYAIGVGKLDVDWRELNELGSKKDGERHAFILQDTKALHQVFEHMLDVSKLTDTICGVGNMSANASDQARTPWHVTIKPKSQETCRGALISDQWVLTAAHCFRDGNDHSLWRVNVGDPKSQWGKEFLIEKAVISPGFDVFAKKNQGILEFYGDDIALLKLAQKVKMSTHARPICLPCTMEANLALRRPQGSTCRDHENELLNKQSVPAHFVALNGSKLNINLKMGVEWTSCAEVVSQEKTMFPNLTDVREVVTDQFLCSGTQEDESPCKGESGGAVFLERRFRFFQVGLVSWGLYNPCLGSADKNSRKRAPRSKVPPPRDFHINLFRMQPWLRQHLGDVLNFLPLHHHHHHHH

human C2 G432A = target: T3, human C2 G432A (human, UniProt P06681 21-752)
T3 sequence: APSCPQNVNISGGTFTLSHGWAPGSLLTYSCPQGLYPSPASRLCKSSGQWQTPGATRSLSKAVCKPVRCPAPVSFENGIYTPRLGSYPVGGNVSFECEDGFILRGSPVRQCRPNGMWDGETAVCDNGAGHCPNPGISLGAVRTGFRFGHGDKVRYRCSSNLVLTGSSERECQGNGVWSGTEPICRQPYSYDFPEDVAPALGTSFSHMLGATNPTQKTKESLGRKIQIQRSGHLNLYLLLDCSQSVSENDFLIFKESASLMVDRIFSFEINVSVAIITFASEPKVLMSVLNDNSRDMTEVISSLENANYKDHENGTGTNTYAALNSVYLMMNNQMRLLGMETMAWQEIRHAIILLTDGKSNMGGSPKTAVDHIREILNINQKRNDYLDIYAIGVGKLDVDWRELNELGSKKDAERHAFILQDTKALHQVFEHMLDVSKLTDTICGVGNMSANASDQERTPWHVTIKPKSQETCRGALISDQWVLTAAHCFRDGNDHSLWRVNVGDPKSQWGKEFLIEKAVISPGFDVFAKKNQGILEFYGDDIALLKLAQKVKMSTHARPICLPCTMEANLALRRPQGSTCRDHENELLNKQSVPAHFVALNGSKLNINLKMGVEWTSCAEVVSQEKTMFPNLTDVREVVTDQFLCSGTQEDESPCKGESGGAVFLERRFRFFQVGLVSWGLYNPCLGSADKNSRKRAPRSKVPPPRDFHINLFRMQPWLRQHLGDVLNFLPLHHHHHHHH

human C2 L706A = target: T4, human C2 L706A (human, UniProt P06681 21-752)
T4 sequence: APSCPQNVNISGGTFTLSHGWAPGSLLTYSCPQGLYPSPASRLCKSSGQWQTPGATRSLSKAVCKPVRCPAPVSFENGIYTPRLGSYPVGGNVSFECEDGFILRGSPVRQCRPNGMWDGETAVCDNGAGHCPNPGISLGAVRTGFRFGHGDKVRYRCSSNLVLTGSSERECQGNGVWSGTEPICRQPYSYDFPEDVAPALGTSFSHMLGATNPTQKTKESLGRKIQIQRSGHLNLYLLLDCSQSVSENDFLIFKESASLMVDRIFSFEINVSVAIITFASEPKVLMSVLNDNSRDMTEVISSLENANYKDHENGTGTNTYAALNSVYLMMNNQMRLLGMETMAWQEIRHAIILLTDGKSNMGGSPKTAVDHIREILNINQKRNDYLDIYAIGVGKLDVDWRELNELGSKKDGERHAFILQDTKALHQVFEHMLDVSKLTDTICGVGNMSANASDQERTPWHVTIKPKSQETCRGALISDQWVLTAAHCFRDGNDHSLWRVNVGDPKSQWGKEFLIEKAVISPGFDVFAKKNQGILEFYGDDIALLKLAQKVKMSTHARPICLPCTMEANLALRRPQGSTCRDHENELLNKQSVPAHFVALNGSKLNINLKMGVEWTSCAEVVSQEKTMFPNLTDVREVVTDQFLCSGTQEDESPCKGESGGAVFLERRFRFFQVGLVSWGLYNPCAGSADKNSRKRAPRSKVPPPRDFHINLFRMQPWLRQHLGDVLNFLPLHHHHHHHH

B1: RF16-226 (antibody, human IgG4 S228P, lambda)
heavy: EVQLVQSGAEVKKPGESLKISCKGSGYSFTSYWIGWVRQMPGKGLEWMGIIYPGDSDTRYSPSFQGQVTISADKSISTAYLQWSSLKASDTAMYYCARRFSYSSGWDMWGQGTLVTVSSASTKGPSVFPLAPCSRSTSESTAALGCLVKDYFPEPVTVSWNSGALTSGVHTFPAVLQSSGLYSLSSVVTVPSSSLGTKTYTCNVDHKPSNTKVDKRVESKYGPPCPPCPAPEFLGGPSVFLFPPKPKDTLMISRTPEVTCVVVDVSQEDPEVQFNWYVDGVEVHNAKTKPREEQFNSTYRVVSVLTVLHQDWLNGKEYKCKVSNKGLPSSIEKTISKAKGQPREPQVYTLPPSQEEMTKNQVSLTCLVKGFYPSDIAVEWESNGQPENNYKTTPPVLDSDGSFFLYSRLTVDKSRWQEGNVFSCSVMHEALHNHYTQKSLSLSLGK
light: SYELTQPPSVSVSPGQTARITCSGDALTSKYVAWYQQKSGLAPLLVIYEDTRRPSGIPAKFSGSSSGSVATLTISGAHGDDEADYYCYSTDASGHQRVFGGGTKLTVLSQPKAAPSVTLFPPSSEELQANKATLVCLISDFYPGAVTVAWKADGSPVKAGVETTKPSKQSNNKYAASSYLSLTPEQWKSHRSYSCQVTHEGSTVEKTVAPTECS
notes: pH-dependent anti-C2 antibody from a phage display library; also called WT
Fold diff (human C2 N467A): 2 fold
Fold diff (human C2 E476A): 2 fold
Fold diff (human C2 G432A): 1 fold
Fold diff (human C2 L706A): 23 fold
